Results on one substance are retold here after paper PMC4686834, “Autocrine selection of a GLP-1R G-protein biased agonist with potent antidiabetic effects” (Nature Communications, 2015).

Assay [1] deals with human GLP-1 receptor (stable CHO cell line) (human) (UniProt P43220).
Assay [2] deals with mouse GLP-1 receptor (HEK293 cell line) (mouse) (UniProt O35659).
Sequence of mouse GLP-1 receptor (HEK293 cell line) (mouse) (O35659 22-463): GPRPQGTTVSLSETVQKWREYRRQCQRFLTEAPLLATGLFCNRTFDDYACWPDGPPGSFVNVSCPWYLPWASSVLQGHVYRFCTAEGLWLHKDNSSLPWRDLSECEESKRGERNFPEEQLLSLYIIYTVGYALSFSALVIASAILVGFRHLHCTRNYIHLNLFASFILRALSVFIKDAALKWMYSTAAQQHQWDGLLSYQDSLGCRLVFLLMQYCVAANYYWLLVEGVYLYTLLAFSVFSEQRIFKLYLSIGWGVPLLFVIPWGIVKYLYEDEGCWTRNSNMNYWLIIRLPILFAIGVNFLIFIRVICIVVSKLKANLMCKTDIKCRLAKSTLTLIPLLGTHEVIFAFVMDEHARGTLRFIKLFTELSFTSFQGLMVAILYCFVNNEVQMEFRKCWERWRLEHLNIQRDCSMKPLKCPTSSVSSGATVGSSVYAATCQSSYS

Sequence of human GLP-1 receptor (stable CHO cell line) (human) (P43220 24-463): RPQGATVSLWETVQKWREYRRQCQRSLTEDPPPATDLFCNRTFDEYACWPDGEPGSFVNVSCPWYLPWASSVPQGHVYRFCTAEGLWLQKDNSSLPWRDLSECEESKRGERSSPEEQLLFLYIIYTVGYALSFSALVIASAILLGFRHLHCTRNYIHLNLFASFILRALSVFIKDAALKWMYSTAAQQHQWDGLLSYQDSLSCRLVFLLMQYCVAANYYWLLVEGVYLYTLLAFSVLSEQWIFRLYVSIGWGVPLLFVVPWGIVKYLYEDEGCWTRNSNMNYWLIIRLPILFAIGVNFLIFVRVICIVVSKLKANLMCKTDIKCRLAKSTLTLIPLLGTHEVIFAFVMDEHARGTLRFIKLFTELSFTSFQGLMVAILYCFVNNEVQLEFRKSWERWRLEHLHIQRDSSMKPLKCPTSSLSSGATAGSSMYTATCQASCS

As to “Exendin-4 (from UniProt P26349 48-87) (peptide)”, in assay [1], the EC50, cAMP production (Gαs; HTRF) in CHO cells expressing human GLP-1R came out at 0.091 nM. In addition, in assay [2], the EC50, cAMP production (Gαs; HTRF) in HEK293 cells expressing mouse GLP-1R stood at 0.322 nM.
